Publication PMC6713507

Target: catalytic α subunit of the cAMP-dependent protein kinase A, Cushing's syndrome mutant L205R (PKA-C^L205R) (human)
Experiment: ITC

Substance: VPS36-derived peptide (vacuolar protein-sorting–associated protein 36, residues 115 to 130)
- Kd: 3.5 µM
